Test results taken from US20240247069A1 (published 2024).

Columns and labels:
Assay in all cases: Biacore
[1] = biological target: T1, Human FGFR3b.mmh (REGN3152) (UniProt P22607 23-806)
T1 chain: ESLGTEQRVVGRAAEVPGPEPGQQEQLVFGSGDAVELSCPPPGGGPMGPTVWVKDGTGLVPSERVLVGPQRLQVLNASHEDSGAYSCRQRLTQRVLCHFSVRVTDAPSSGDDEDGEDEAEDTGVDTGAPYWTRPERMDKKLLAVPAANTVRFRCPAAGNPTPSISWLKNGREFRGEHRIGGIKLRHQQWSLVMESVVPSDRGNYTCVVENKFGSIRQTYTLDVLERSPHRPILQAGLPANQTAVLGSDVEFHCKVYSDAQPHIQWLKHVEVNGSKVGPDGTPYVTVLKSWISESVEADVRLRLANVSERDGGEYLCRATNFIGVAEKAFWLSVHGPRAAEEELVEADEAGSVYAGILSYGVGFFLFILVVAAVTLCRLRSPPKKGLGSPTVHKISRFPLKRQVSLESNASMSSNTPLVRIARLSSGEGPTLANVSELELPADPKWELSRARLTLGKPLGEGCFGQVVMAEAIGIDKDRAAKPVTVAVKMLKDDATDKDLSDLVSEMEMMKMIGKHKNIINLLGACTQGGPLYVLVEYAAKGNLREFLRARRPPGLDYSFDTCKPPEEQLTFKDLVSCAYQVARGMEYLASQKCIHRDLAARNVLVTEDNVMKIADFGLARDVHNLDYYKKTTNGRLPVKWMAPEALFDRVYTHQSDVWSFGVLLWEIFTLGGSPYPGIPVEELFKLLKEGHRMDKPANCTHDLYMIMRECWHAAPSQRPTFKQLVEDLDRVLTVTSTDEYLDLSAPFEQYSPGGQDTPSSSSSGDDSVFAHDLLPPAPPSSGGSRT

[2] = biological target: T2, Mouse FGFR3b.mmh (REGN3215) (UniProt Q61851 21-801)
T2 chain: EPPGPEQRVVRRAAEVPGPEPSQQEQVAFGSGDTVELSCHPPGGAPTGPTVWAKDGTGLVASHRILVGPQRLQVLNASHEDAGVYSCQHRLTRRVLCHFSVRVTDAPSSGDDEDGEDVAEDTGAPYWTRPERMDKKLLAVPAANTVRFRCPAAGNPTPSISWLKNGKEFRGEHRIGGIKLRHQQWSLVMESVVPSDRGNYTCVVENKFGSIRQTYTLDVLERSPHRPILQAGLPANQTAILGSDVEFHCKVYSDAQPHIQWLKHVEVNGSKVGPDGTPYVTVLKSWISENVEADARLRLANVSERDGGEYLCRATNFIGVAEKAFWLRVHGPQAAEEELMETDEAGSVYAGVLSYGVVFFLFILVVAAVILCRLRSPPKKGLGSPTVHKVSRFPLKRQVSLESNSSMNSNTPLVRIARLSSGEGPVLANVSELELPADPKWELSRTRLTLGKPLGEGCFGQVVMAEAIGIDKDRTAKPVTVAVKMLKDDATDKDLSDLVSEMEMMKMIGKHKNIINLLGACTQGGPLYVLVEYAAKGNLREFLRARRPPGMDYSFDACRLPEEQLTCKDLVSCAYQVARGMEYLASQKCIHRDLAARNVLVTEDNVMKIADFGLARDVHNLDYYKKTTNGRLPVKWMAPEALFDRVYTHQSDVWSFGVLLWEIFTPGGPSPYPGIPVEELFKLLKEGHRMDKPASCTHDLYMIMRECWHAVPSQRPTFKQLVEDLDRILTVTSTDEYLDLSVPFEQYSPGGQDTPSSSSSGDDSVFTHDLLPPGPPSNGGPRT

Mouse FGFR3b = biological target: T3, Mouse FGFR3b (UniProt Q61851 21-801)
T3 chain: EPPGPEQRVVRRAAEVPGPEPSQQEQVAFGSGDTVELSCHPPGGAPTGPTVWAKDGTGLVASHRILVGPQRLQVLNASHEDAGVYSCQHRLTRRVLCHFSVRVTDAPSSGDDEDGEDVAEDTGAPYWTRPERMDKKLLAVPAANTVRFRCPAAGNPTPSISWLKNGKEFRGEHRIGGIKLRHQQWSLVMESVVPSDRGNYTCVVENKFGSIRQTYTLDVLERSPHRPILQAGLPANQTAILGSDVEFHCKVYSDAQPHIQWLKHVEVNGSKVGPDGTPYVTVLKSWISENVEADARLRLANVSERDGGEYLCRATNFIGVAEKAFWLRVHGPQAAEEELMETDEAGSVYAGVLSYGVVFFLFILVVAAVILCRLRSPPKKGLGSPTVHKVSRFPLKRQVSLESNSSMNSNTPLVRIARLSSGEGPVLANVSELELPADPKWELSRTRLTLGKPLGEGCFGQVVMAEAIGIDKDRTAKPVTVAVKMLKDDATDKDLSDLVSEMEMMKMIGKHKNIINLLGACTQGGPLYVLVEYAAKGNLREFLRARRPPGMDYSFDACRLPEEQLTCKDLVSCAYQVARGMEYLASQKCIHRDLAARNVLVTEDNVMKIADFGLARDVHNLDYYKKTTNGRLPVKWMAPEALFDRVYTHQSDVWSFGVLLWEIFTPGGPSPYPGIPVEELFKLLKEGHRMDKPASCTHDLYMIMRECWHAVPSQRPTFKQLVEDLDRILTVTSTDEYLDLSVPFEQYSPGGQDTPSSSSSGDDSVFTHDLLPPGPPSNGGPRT

Human FGFR3b = biological target: T4, Human FGFR3b (UniProt P22607 23-806)
T4 chain: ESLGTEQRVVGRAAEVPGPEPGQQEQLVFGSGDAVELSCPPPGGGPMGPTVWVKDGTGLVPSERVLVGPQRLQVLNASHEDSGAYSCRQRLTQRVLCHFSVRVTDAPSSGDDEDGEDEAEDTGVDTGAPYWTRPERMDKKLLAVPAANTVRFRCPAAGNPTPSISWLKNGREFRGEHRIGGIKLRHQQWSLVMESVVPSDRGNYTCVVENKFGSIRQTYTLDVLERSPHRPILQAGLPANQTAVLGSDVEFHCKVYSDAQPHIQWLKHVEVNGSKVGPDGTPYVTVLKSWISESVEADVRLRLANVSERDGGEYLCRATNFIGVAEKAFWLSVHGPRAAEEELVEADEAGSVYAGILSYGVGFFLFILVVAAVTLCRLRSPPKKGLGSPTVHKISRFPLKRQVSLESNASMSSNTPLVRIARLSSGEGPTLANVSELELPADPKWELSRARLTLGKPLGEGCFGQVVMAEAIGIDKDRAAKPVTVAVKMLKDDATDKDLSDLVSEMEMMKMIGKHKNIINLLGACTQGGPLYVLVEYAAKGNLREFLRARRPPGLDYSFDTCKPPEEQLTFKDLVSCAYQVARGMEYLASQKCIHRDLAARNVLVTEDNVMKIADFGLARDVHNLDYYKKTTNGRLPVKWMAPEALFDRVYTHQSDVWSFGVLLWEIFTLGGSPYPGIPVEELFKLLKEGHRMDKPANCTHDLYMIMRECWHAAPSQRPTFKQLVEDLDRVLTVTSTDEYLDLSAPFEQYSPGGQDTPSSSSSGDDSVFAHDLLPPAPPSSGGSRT

B1: mAb063 (antibody, V domains shown)
VH: QVQLQESGPGLVKPSETLSLTCTVSGDSINSYFWSWIRQLPGKELEWIGHIYSSGSTRYNPSLQSRVTISIDTSKNQFSLKLSSVTAADTAVYYCARGASAVDYWGQGTLVTVSS
VL: EIVLTQSPGTLSLSPGERATLSCRTSQSISSGYLAWYQQKPGQAPRLLIYGASRRATGIPDRFSGSGSGTDFTLTISRLEPEDFVVYYCQQYGSSPYTFGQGTKLEIKR
Kd [1]: 2.59 nM
Kd [2]: 1.4 nM
Kd (Mouse FGFR3b): 1.4 nM
Kd (Human FGFR3b): 2.59 nM
